Reference: the supplement of paper PMC12764529
± gives the half width of the 95% confidence interval.

What was measured:
[1] = folding stability dG unfold from chymotrypsin proteolysis; higher = more stable
How it was run: (§1)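 Designed mini-proteins (under 80 residues, no cysteine) in a PA-tagged cDNA display construct were digested with trypsin and chymotrypsin. Each protease was used at 11 concentrations (threefold dilutions) plus a no-protease condition, followed by sequencing. K50 was inferred by Bayesian fitting of sequencing counts, and unfolding free energy was derived against a sequence-predicted unfolded-state K50 and a shared folded-state K50, per protease or combined. Only designs with AlphaFold2 dimer inter-PAE above 15 were kept.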

[2] = folding stability dG unfold (combined trypsin and chymotrypsin); higher = more stable
How it was run: as §1

[3] = folding stability dG unfold from trypsin proteolysis; higher = more stable
How it was run: as §1

Sequence	folding stability dG unfold [1] [kcal/mol]	folding stability dG unfold [2] [kcal/mol]	folding stability dG unfold [3] [kcal/mol]
SMNIISIDIEPYRTGGEPWIYIPIQVPDENMPPSELEEIVEEIFEKLGLPINVKVHRDPNSGTIWIMIRLSA [r9_717_TrROS]	2.79 ± 0.13	2.75 ± 0.27	2.72 ± 0.15
SMNITVTYDPETDTVTIEIDDEEIDPETLRELLDAIPPNVKRVIIHVDHPETARTVEELAKETGLPVEIASA [r9_919_TrMRF]	3.2 ± 0.13	3.97 ± 0.12	3.96 ± 0.077
SMPKIEVKIEYDEETGEITVEIRVPETEEEALEALRKLAEEAGLEVEVEEVEIEEVDGELVIRVKVRIKPSA [r9_164_TrROS_Hall]	2.44 ± 0.16	3.08 ± 0.28	3.57 ± 0.21
SMPLTPAEVAEARARAAREAAEAAAGVPVTVRVTLSTPDRELTVTLPATESLAAVMKAHPDVTVEVEVEASA [r9_513_JUSTAS]	0.0452 ± 0.11	0.284 ± 0.059	0.459 ± 0.043
SMPLTPEEVEEVVEAVAKELEEETGEEVKAEVFYDPETGRFYAVIELPDGRRVRIEIDPETGEVRVEVEASA [r9_9_TrMRF]	4.17 ± 0.15	4.02 ± 0.1	3.8 ± 0.13
SMPPDEKLIFVTRFKVKPDNPEDIEKALAAARETVRALLEELGLPEVKEVRVLRVEVHPDGYVTVVVEVGSA [r9_754_TrMRF]	4.73 ± 0.1	4.49 ± 0.08	4.05 ± 0.11
SMPRLVATPRPDGSVLVLLEAPPERPEEIAEEIRERLGVPLRVVRIEPVPERVGDRPRLRYRVLIEVDVRSA [r9_431_TrMRF]	0.923 ± 0.12	0.976 ± 0.095	0.96 ± 0.077
SMPVTITITLHKDPNSDVIPVRLEMTDSAGNPIGEREIDYTTTEEEARERAVALAEEIAAATGYTIEFGESA [r9_31_JUSTAS]	0.266 ± 0.22	0.8 ± 0.11	1.27 ± 0.069
SMPVTITRDFDIPLATLSVEEVKAAIEEALKAEGLNVVEPKLDEKLVKELEEAPPSSTLPVKVTVLVEPASA [r9_1163_JUSTAS]	0.715 ± 0.049	0.62 ± 0.15	0.35 ± 0.074
SMREIPPEDLKKAANAYLNGDKEKVEQLFKDAGFKKVVLEEVEGDGEVLFVALVEHPDGPTVLTVSSSDFSA [r9_783_TrMRF]	1.33 ± 0.1	1.04 ± 0.25	0.7 ± 0.064
SMRIHDSNGQSYTIMIRTPDPNVTPEKIVKAIDEAGYKVTEIQRPPEKGHVHINIRVRDRERAIEAIKELSA [r9_1154_TrROS]	-0.253 ± 0.18	0.0402 ± 0.12	0.231 ± 0.12
SMRKVKRKVTLEITIKVPESVLKPIPDADYYTYPFDDKLVKPDAVIPRTVTITGPYTEEEVEKLVKEILSSA [r9_165_JUSTAS]	-0.613 ± 0.48	0.249 ± 0.25	0.749 ± 0.2
SMRVTIMIPVPPGLKNLKLEFKLPYPDGREVDVDIQVDPNYITITVEMNNPGQMDWVQERFQEEIEKLLGSA [r9_790_TrROS]	4.09 ± 0.15	3.64 ± 0.16	3.24 ± 0.1
SMSMEEAMEWAEENPDRPVIFINPEDWYIMIYNPKKGKMEMRPITSPEEALEELDDENIDRIYIVPADEISA [r9_775_TrROS]	2.31 ± 0.061	1.96 ± 0.088	1.21 ± 0.064
SMSPEALKKANEFAEYIAEHFKNWNIEIDVEVEWDPDGEITIRAKIEMRPPPPPPPKPKRDPNGKWKWEGSA [r9_82_TrROS]	2.3 ± 0.23	1.84 ± 0.51	0.943 ± 0.079
SMSREELREYARAHPDRPLALILPGKKTLLLFDPATGAEREEDITSVEEAKERLAAQPVAVVEVVSAELLSA [r9_775_JUSTAS]	0.499 ± 0.085	0.294 ± 0.11	-0.439 ± 0.37
SMSTNLVVKEKLIPPGVLVVTYKKDGKPVKVETKVVVIPPQLVVEEVLYPGGKLALKTYDPLTGTPSFELSA [r9_343_JUSTAS]	0.644 ± 0.28	0.337 ± 0.29	-0.122 ± 0.14
SMSVEISVPPTNPGASPEEIAAALAAKGRPVEVVSVSEDPSTGTRTVTIAVRAPDGTLEETVVVNAPVGVSA [r9_879_JUSTAS]	-0.772 ± 0.33	0.0853 ± 0.12	0.495 ± 0.057
SMSYTVTVEYPDTGKTTTTPIPPDALEVSVSLSGPSTIRITITTDVNGATTTTTSTVTLPPPALPPSTLLSA [r9_1067_JUSTAS]	0.927 ± 0.28	1.06 ± 0.22	1.11 ± 0.097
SMTAEEIAERLARALEEAGIRRVEVEVTVEYDPETDEVTVTVTIRVEPAPEAPPEEEEERREREEREAEESA [r9_440_TrROS_Hall]	2.43 ± 0.09	2.31 ± 0.11	2.26 ± 0.057
SMTAEVTLTIVYPDGTSTTLPMTFPADDPEALRAAIRAAVAAAGYTPTALQMTFTAQPDGSVRVDVTVTVAS [r1_281_JUSTAS]	5.7 ± 0.066	5.61 ± 0.077	4.1 ± 0.059
SMTFVLPYPKEGKTITVTYPDLESAVSSSGVATFQDPALLAQVIAALPSSVIVKEIKKNPDGTYTLTVAASA [r9_997_JUSTAS]	-0.066 ± 0.24	0.483 ± 0.1	0.773 ± 0.043
SMTIEIEVDGKTVTVEIDPKTGKIKKVVVKDKETGEWKELSDEEIEKLLKELEDELREKREKLEKEGKEPSA [r9_368_TrROS_Hall]	2.5 ± 0.18	2.53 ± 0.25	2.32 ± 0.24
SMTIERHPDKLTVRVPAAFSTVPEVVRFLKELGFELPPGVKDVRVEDVEPGARVVRVTVHFDDPEALERLSA [r9_820_TrMRF]	1.58 ± 0.049	1.81 ± 0.031	1.97 ± 0.024
SMTITIERPVPPELTDRPLSLELPLPNGSTVSVKVETSPTTATVTITTNDPSLEAEVKARVEELLARLLASA [r9_790_JUSTAS]	2.058 ± 0.02	2.27 ± 0.1	2.56 ± 0.094
SMTLEEAKEIAEKNPDIPVALIFPGKKLIYIYHPKSGKWEVKPVTSIEEAIEALEKEDIDAIFIVPAELDSA [r9_775_TrMRF]	3.93 ± 0.087	4.06 ± 0.16	4.54 ± 0.44
SMTLITLTDPVTNVPVEKVEVRKLEDGTYEATVTTKEPSKTTTKTYPLPPDEKITDVLKSLGLKEAEINLSA [r9_492_JUSTAS]	0.538 ± 0.093	0.445 ± 0.17	0.255 ± 0.036
